Assay [1] concerns the target T1, cynomolgus monkey CD47 on CHO-K1 cells (cynomolgus monkey, UniProt A0A5F8AK49 19-323 (rhesus entry)).
T1 construct: whole, on cells; also called CHO-K1/cyno CD47; CHO-K1/cynoCD47
Briefly: flow cytometry on CHO-K1/cyno CD47 cells; unit taken from the axis. Background: In flow cytometry, cells or beads pass a laser one at a time.
Method: (§1) Briefly, binding to cell-expressed cyno CD47 was evaluated on cynomolgus monkey CD47 over-expressing CHO cells. Anti-CD47 antibody dilution series was prepared in FACS buffer. CHO-K1/cynomolgus monkey CD47 cell were transferred to a 96-well U-bottom plate and add CD47 antibody dilution. After 30 minutes incubation at 4° C., cells were washed twice with FACS buffer. […] The cells were washed twice with wash buffer, and then analyzed for binding by using FACSCalibur (BD Bioscience, San Jose, Calif.) and Flowjo software.

Assay [2] deals with T1, cynomolgus monkey CD47 on CHO-K1 cells. The description is as above. The source holds these as a separate data set.
Method: as §1
Assay [3] has as its target T2, human CD47 on cells (human, UniProt Q08722 19-323).
T2 construct: also called CHO-K1/huCD47; human CD47 over-expressed in CHO-K1 cells
Kind of assay: flow cytometry, blocking of human SIRPα binding to CHO-K1/huCD47 cells; the box on the sheet is labelled EC50; unit taken from the axis.
Method: (§2) After 30 minutes incubation at 4° C., cells were washed twice with FACS buffer.

In assay [4] the target is T1, cynomolgus monkey CD47 on CHO-K1 cells. Kind of assay: flow cytometry on CHO-K1/cyno CD47 cells.
Method: as §1
The target of assay [5] is T2, human CD47 on cells. Briefly: flow cytometry, blocking of human SIRPα binding to CHO-K1/huCD47 cells.
Method: as §2
Assay [6] deals with T3, CD47 protein.
T3 construct: also called CD47 (ELISA antigen); not shown: The carrier of the coated recombinant protein (an Fc tag as in CD47-Fc, or a His tag as in CD47-His)
Briefly: ELISA on CD47 protein; x axis is log10 of mAb (ng/ml). For orientation: In an ELISA, binding on a coated surface is turned into a signal by an enzyme label.

The target in assay [7] is T2, human CD47 on cells. Briefly: flow cytometry on CHO-K1/huCD47 cells; x axis Log(nM), unit taken from the axis.
Method: (§3) Binding to cell-expressed human CD47 was evaluated on human CD47 over-expressing CHO cells (GenScript, Cat #M00581). Anti-CD47 antibody dilution series was prepared in FACS buffer. CHO-K1/human CD47 cells were transferred to a 96-well U-bottom plate and anti-CD47 antibody dilution was added. […] The cells were then washed twice with wash buffer. Cells were analyzed for binding by FACSCalibur (BD Bioscience, San Jose, Calif.) and Flowjo software.
Assay [8] addresses T3, CD47 protein. Kind of assay: ELISA on CD47 protein; x axis is log10 of mAb (ng/ml), unit taken from the axis.
Assay [9] addresses T2, human CD47 on cells. Kind of assay: flow cytometry on CHO-K1/huCD47 cells; x axis Log(nM).
Method: as §3
Assay [10] addresses T1, cynomolgus monkey CD47 on CHO-K1 cells. Briefly: flow cytometry on CHO-K1/cyno CD47 cells; unit taken from the axis. The source holds these as a separate data set.
Method: as §1
For assay [11] the target is unchanged. Briefly: flow cytometry on CHO-K1/cynoCD47 cells; unit taken from the axis.
Method: as §1
Assay [12] has as its target T2, human CD47 on cells. Kind of assay: flow cytometry, blocking of human SIRPα binding to CHO-K1/huCD47 cells; the box on the sheet is labelled EC50; unit taken from the axis. This is another data set of the same source.
For the next assay, the target named is T4, human CD47-His protein (human, UniProt Q08722 19-139, limits assumed).
T4 construct: It includes the signal peptide and the membrane-spanning region, which a soluble protein would lack; not shown: His tag
Briefly: SPR (Biacore T200), antibody captured, human CD47-His as analyte, 1:1 model.

For assay [13], the target named is T2, human CD47 on cells. Briefly: flow cytometry on red blood cells; unit taken from the axis.
Assay [14] has as its target T2, human CD47 on cells. Briefly: flow cytometry on CHO-K1/huCD47 cells; unit taken from the axis.
Method: as §3

From patent US20210070855A1 (NANJING LEGEND BIOTECH, published 2021) come the findings set out here.

Residue numbers refer to the chain shown, from its start. Where two headings read alike, the source gives them in different places.

B1: 107F11C4 (antibody, V domains shown)
VH: EVQLQQSGAEFVKPGASVKLSCTASGFNIEDTYMHWVKQRPEQGLEWIGMIDPANGKTKYGPRFQDKATVTADTSSNTANLQLSSLTSEDTAVYYCADGIGYYVGAMDYWGQGTSVTVSS
VL: DIQMNQSPSSLSASLGDTITITCHASQNINVWLSWYQQKPGNIPKLLIYKASNLHTGVPSRFSGSGSGTGFTLTISSLQPEDIATYYCQQGHSYPYTFGGGTKLEIK
notes: purified murine anti-CD47 hybridoma antibody; same VH and VL as 107F11B11 and 107F11F10
For the molecule B1, the EC50 in assay [1] and in assay [2] was 1.13 nM in each case. Besides, the IC50 – broadly, the concentration needed to halve the response being measured – with human CD47 on cells [3] stood at 1.07 nM.

B2: 107F11B11 (antibody, V domains shown)
VH: B1 VH
VL: B1 VL
notes: purified murine anti-CD47 hybridoma antibody; same VH and VL as 107F11C4 and 107F11F10; also called 07-107F11B11
With B2, the entries for the “EC50 (read off the curve)” value (in assay [4]; in the assay with CD47 protein [6]) were approximately 1 nM and approximately 5 ng/mL, respectively. In addition, the “IC50 (read off the curve)” value in the assay with human CD47 on cells [5] was approximately 2 nM.

B3: 98G5F6 (antibody, V domains shown)
VH: QVQLQQSGPQLVRPGASVKISCKASGYSFTNYWMHWMKQRPGQGLEWIGMIDPSDSETRLNQQFKDKATLTVDKSSSTAYMQLSSPTSEDSAVYYCARLGRYYFDFWGQGTTLTVSS
VL: NIVMTQSPKSMSVSVGERVTLSCRASEIVGTYVSWYQQKPEQSPKLLIYGASNRFTGVPDRFTGSRSATDFSLTISNVQAEDLADYLCGQSYDSPYTFGGGTKLEIK
notes: purified murine anti-CD47 hybridoma antibody; same VH and VL as 98G5F11; also called 05-98G5F6
Consider B3, for which the 50% effective concentration (EC50) (commonly the concentration at which the effect is half-maximal) in the assay with human CD47 on cells [7] was 3.48 nM; with CD47 protein [8] it was 3.53 ng/mL. In addition, in the assay with human CD47 on cells [3], the IC50 was found to be 6.97 nM.

B4: 98G5F11 (antibody, V domains shown)
VH: B3 VH
VL: B3 VL
notes: purified murine anti-CD47 hybridoma antibody; same VH and VL as 98G5F6; also called 06-98G5F11
With B4, the figures for the “EC50 (read off the curve)” value with CD47 protein [6] and in the assay with human CD47 on cells [9] were approximately 9 ng/mL and approximately 10 nM, respectively.

B5: 112E5D9 (antibody, V domains shown)
VH: B3 VH with Y32N, K65R, S75T, F106Y, Q109L
VL: B3 VL with L21M, S22N, S52F, F55Y, A68G, T74N
notes: purified murine anti-CD47 hybridoma antibody; same VH and VL as 112E5F2 and 112E5H7; also called 10-112E5D9
In the case of B5, in the assay with human CD47 on cells [5], the “IC50 (read off the curve)” value is approximately 4 nM. Besides, the figures for the EC50 (with human CD47 on cells [7]; with CD47 protein [8]; in assay [10]) were 3.47 nM, 4.77 ng/mL and 1.45 nM, respectively.

B6: 98E2E7 (antibody, V domains shown)
VH: B3 VH with Y32H, Y94F, F106Y
VL: B3 VL with E27D, F55Y
notes: purified murine anti-CD47 hybridoma antibody; same VH and VL as 98E2E12; also called 03-98E2E7
As to B6, the EC50 (read off the curve) (in general, the concentration needed to bring the measured effect to its halfway point) is approximately 3 nM in assay [4] and approximately 7 nM with human CD47 on cells [9]. In addition, the EC50 with CD47 protein [8] worked out at 3.78 ng/mL.

B7: 112E5F2 (antibody, V domains shown)
VH: B3 VH with Y32N, K65R, S75T, F106Y, Q109L
VL: B3 VL with L21M, S22N, S52F, F55Y, A68G, T74N
notes: purified murine anti-CD47 hybridoma antibody; same VH and VL as 112E5D9 and 112E5H7; also called 11-112E5F2
For the molecule B7, the EC50 in the assay with human CD47 on cells [7] stood at 3.15 nM; in [10], 1.81 nM. In the assay with human CD47 on cells [3], this molecule came in with an IC50 of 2.98 nM. The “EC50 (read off the curve)” value with CD47 protein [6] is approximately 2 ng/mL.

B8: 55F2C4 (antibody, V domains shown)
VH: B3 VH with T71A, F106Y
VL: B3 VL with S12Y, S22I, F55Y
notes: also called 01-55F2C4
In the case of B8, the “IC50 (read off the curve)” value with human CD47 on cells [5] is approximately 5 nM. For the same molecule, the EC50 was determined as 52.5 nM with human CD47 on cells [7], 1.39 ng/mL in the assay with CD47 protein [8] and 5.75 nM in assay [10].

B9: 112E5H7 (antibody, V domains shown)
VH: B3 VH with Y32N, K65R, S75T, F106Y, Q109L
VL: B3 VL with L21M, S22N, S52F, F55Y, A68G, T74N
notes: purified murine anti-CD47 hybridoma antibody; same VH and VL as 112E5D9 and 112E5F2; also called 12-112E5H7
For B9, the EC50 was 9.81 ng/mL with CD47 protein [8] and 1.53 nM in [10]. Also, the IC50 in the assay with human CD47 on cells [3] amounted to 3.4 nM.

B10: 108VH4.M4_VL1.M1-hIgG1 (antibody)
heavy: not shown
light: EIVLTQSPATLSLSPGERATLSCRASENVGTYISWYQQKPGQAPRLLIYGASNRYTGIPARFSGSGSGTDFTLTISSLEPEDFAVYYCGESYGHLYTFGGGTKVEIKRTVAAPSVFIFPPSDEQLKSGTASVVCLLNNFYPREAKVQWKVDNALQSGNSQESVTEQDSKDSTYSLSSTLTLSKADYEKHKVYACEVTHQGLSSPVTKSFNRGEC
notes: Humanized 108C10A6, human IgG1 with kappa light chain; also called 108VH4.M4_VL1.M1-hlgG1; 108VH4.M4_VL1.M1-hIgG1-Ka
On to B10, for which the EC50 in assay [11] turned out to be 0.262 nM; with human CD47 on cells [13], 2.62 nM; with human CD47 on cells [14], 0.299 nM. In the assay with human CD47 on cells [12], this molecule came in with a half-maximal inhibitory concentration (IC50) of 0.911 nM. In the assay with human CD47-His protein, binding was put at a Kd of 1.4 nM. In addition, the off-rate constant (koff) – broadly, the first-order rate constant of dissociation – in the assay with human CD47-His protein worked out at 0.00043 s⁻¹. Besides, the association rate constant (kon) (as a rule, a measure of how fast the partners come together) with human CD47-His protein came out at 310000 M⁻¹ s⁻¹.

B11: 108VH4.M4_VL1.M1-hIgG2 (antibody)
heavy: EVQLVQSGAEVKKPGSSVKVSCKASGYSFTHHWIHWVRQAPGQGLEWMGMIDASDSETRLSQKFKDRVTITADKSTSTAYMELSSLRSEDTAVYYCARLGRYYFDYWGQGTTVTVSSASTKGPSVFPLAPCSRSTSESTAALGCLVKDYFPEPVTVSWNSGALTSGVHTFPAVLQSSGLYSLSSVVTVPSSNFGTQTYTCNVDHKPSNTKVDKTVERKCCVECPPCPAPPVAGPSVFLFPPKPKDTLMISRTPEVTCVVVDVSHEDPEVQFNWYVDGVEVHNAKTKPREEQFNSTFRVVSVLTVVHQDWLNGKEYKCKVSNKGLPAPIEKTISKTKGQPREPQVYTLPPSREEMTKNQVSLTCLVKGFYPSDIAVEWESNGQPENNYKTTPPMLDSDGSFFLYSKLTVDKSRWQQGNVFSCSVMHEALHNHYTQKSLSLSPGK
light: B10 light
notes: Humanized 108C10A6, human IgG2 with kappa light chain; also called 108VH4.M4_VL1.M1-hlgG2; 108VH4.M4_VL1.M1-hIgG2-Ka
As for B11, the EC50 in assay [11] was 1.31 nM; with human CD47 on cells [13], 5.51 nM; in the assay with human CD47 on cells [14], 1.4 nM. For the same molecule, the IC50 with human CD47 on cells [12] was found to be 1.87 nM. Also, binding in the assay with human CD47-His protein was characterised by a dissociation constant (Kd) of 1.5 nM. The molecule also returned a koff in the assay with human CD47-His protein of 0.00044 s⁻¹. In addition, the kon in the assay with human CD47-His protein is 290000 M⁻¹ s⁻¹.

B12: 108C10F5 (antibody, V domains shown)
VH: QMQLQQSGPQLVRPGASVKISCKTSGYSFTHHWIHWMKQRPGQGLEWIGMIDPSDSETRLSQKFKDKATLTVDASSSTAYMQLNSPTSEDSALYFCARLGRYYFDYWGQGTTLTVSS
VL: NIVMTQSPRSMSMSVGERVTLSCKASENVGTYISWYQQKPDQSPKLLIYGASNRYTGVPDRFTGSGSGTDFTLTISTVQAEDLADYHCGESYGHLYTFGGGTKLEIK
notes: purified murine anti-CD47 hybridoma antibody; separate subclone with its own curves; same VH and VL as 108C10A6; also called 09-108C10F5
With B12, the half-maximal effective concentration (EC50) with CD47 protein [8] was 23.4 ng/mL; in assay [10], 2.01 nM. For the same molecule, in the assay with human CD47 on cells [9], the “EC50 (read off the curve)” value was approximately 5 nM.
